Square brackets hold non-standard residues; d marks the D form. Ends that are not written are not given here. * marks the point of attachment. 5‑TAMRA = CN(C)c1ccc2c(-c3ccc(C(=O)*)cc3C(=O)[O-])c3ccc(N(C)C)cc3[o+]c2c1; pS = N[C@@H](COP(=O)(O)O)C(=O)O Where only a bound is given, the exact number is not on record here.

In assay [1] the target is full-length PKA-RIα regulatory subunit dimer (bovine, UniProt P00514 1-380). As to the kind of experiment: fluorescence polarisation.
For assay [2], the target named is full-length PKA-RIβ regulatory subunit dimer (UniProt P31321 1-381). The experiment in a line: fluorescence polarisation.
full-length PKA-RIβ regulatory subunit dimer, sequence (P31321 whole entry): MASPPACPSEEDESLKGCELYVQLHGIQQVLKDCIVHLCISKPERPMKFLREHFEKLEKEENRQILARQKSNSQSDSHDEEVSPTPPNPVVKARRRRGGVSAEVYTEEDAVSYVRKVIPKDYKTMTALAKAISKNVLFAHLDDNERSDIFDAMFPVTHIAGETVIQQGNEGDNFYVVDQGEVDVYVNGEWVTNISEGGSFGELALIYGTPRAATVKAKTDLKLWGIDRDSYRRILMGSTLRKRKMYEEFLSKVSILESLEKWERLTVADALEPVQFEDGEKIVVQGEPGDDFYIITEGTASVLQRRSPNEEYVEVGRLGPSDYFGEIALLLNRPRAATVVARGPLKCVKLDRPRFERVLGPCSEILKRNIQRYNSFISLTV

full-length PKA-RIα regulatory subunit dimer, sequence (P00514 whole entry): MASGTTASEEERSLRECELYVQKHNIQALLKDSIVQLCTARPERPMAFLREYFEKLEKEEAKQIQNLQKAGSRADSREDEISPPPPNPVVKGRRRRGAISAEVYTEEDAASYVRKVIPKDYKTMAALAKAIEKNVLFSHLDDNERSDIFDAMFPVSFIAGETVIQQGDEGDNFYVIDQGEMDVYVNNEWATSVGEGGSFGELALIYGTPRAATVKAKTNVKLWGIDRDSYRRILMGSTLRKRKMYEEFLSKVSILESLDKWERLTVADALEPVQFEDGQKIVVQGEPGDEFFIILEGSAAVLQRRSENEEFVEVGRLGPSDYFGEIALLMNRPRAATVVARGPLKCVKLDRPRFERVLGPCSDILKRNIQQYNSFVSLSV

Regarding {5‑TAMRA}-IVILEYAHRL[pS]QDILCDALQQWAC (cysteine pairing not given here) [phosphorylated smAKAP-AKB domain peptide (pSer66), tagged with 5-TAMRA], the Kd in assay [1] and in assay [2] was greater than 500 nM each time.

The record behind these values is PMC4980077 (The FEBS journal, 2016).
